Here are results for one substance from publication PMC9204313.

Assay [1] concerns the target CEP-BSA (21:1 molar ratio) (bovine (from the name BSA)) (UniProt P02769). Put plainly: BLI; Octet K2; CEP-BSA or fibrinogen amine-coupled to AR2G biosensor; active αD I-domain 50-1000 nM in the mobile phase; 20 mM HEPES, 150 mM NaCl, 1 mM CaCl2, 1 mM MgCl2, 0.02% Tween-20, 0.02% BSA, pH 7.5; KD from a plot of response at equilibrium against concentration. For orientation: In BLI a coated tip is dipped into the sample, and binding shifts an interference pattern.

Assay [2] deals with Human fibrinogen (human) (UniProt P02671). The assay is described as above.
Sequence of UniProt P02671 (P02671 36-866, chain 1 of 3): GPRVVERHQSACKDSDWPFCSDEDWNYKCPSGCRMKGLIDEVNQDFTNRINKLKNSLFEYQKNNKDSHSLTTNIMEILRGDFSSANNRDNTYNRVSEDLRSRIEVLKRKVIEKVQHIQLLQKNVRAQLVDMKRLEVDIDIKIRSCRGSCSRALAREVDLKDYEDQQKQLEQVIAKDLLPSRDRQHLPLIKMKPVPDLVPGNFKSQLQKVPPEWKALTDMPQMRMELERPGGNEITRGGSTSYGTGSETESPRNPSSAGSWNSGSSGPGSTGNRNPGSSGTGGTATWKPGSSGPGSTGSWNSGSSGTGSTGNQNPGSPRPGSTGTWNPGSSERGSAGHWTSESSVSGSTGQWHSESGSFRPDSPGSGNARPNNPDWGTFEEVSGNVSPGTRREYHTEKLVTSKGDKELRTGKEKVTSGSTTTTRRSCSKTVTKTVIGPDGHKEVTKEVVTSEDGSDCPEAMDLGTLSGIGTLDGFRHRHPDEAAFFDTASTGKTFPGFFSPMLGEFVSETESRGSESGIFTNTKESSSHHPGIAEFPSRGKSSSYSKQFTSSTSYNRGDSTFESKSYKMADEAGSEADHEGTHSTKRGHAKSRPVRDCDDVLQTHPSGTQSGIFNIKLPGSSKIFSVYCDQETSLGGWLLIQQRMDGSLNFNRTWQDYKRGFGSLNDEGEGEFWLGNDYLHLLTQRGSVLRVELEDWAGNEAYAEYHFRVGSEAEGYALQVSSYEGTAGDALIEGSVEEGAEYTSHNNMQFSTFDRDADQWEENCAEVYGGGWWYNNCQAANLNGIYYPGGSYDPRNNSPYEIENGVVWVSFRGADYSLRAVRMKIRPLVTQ
Sequence of UniProt P02671 (P02675 45-491, chain 2 of 3, further chain): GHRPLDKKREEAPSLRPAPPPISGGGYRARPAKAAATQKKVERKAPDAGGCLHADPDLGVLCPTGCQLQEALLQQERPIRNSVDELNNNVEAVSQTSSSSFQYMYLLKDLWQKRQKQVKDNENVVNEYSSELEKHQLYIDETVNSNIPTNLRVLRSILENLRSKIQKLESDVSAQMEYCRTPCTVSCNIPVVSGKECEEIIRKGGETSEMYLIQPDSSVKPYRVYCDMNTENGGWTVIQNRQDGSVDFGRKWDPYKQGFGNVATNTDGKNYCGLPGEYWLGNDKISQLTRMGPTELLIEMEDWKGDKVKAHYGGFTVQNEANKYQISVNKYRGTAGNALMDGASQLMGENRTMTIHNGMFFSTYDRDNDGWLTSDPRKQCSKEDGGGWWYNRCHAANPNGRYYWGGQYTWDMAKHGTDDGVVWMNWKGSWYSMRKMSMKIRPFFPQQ
Sequence of UniProt P02671 (P02679 27-453, chain 3 of 3, further chain): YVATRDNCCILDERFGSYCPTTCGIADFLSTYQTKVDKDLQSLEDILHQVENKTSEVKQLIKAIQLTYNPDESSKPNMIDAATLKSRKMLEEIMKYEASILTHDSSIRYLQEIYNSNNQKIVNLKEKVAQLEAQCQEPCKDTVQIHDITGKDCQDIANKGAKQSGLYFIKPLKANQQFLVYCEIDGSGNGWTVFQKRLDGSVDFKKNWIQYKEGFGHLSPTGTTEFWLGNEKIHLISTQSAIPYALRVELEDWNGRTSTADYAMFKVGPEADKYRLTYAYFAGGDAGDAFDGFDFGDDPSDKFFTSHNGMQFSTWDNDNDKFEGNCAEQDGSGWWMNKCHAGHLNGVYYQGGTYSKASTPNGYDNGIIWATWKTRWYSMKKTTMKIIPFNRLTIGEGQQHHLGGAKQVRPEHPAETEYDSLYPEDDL

“recombinant αD I-domain in an active conformation (domain or fragment)”: the Kd (as a rule, a measure of binding affinity in units of concentration) in assay [1] came out at 100 nM; in assay [2], 220 nM.
